Among the data in PMC9425028 are ratio to parent values, retold here.

B1: wild-type recombinant mouse MASP-3 fused with PA-tag (WT rmMASP-3-PA) [mouse] / mouse ficolin-A [mouse (endogenous in serum of C57BL/6J mice)] (parent)
chain 1: HTVELNEMFGQIQSPGYPDSYPSDSEVTWNITVPEGFRIKLYFMHFNLESSYLCEYDYVKVETEDQVLATFCGRETTDTEQTPGQEVVLSPGTFMSVTFRSDFSNEERFTGFDAHYMAVDVDECKEREDEELSCDHYCHNYIGGYYCSCRFGYILHTDNRTCRVECSGNLFTQRTGTITSPDYPNPYPKSSECSYTIDLEEGFMVSLQFEDIFDIEDHPEVPCPYDYIKIKAGSKVWGPFCGEKSPEPISTQTHSVQILFRSDNSGENRGWRLSYRAAGNECPKLQPPVYGKIEPSQAVYSFKDQVLVSCDTGYKVLKDNEVMDTFQIECLKDGAWSNKIPTCKIVDCGAPAGLKHGLVTFSTRNNLTTYKSEIRYSCQQPYYKMLHNTTGVYTCSAHGTWTNEVLKRSLPTCLPVCGQPSRALPNLVKRIIGGRNAELGLFPWQALIVVEDTSRVPNDKWFGSGALLSESWILTAAHVLRSQRRDNTVIPVSKEHVTVYLGLHDVRDKSGAVNSSAARVILHPDFNIQNYNHDIALVQLQKPVPLGAHVMPICLPRPEPEGPAPHMLGLVAGWGISNPNVTVDEIILSGTRTLSDVLQYVKLPVVSHAECKASYESRSGNYSVTENMFCAGYYEGGKDTCLGDSGGAFVIFDEMSQHWVAQGLVSWGGPEECGSKQVYGVYTKVSNYVDWLWEEMNSPRAVRDLQVER
chain 2: SQALGQERGACPDVKVVGLGAQDKVVVIQSCPGFPGPPGPKGEPGSPAGRGERGFQGSPGKMGPAGSKGEPGTMGPPGVKGEKGDTGAAPSLGEKELGDTLCQRGPRSCKDLLTRGIFLTGWYTIHLPDCRPLTVLCDMDVDGGGWTVFQRRVDGSIDFFRDWDSYKRGFGNLGTEFWLGNDYLHLLTANGNQELRVDLQDFQGKGSYAKYSSFQVSEEQEKYKLTLGQFLEGTAGDSLTKHNNMSFTTHDQDNDANSMNCAALFHGAWWYHNCHQSNLNGRYLSGSHESYADGINWGTGQGHHYSYKVAEMKIRAS
B2: wild-type recombinant mouse MASP-3 fused with PA-tag (WT rmMASP-3-PA) [mouse] / mouse collectin kidney 1 (CL-K1) [mouse (endogenous in serum of C57BL/6J mice)] (parent)
chain 1: B1 chain 1
chain 2: QQTTEDACSVQILVPGLKGDAGEKGDKGAPGRPGRVGPTGEKGDMGDKGQKGTVGRHGKIGPIGAKGEKGDSGDIGPPGPSGEPGIPCECSQLRKAIGEMDNQVTQLTTELKFIKNAVAGLRETESKIYLLVKEEKRYADAQLSCQARGGTLSMPKDEAANGLMASYLAQAGLARVFIGINDLEKEGAFVYSDRSPMQTFNKWRSGEPNNAYDEEDCVEMVASGGWNDVACHITMYFMCEFDKENL

The variants in one assay derive from B1. Put plainly: immunoprecipitation with anti-PA tag antibody beads from mouse serum, Western blot band intensity. Conditions: with mouse ficolin-A [mouse (endogenous in serum of C57BL/6J mice)]; TBS containing 7 mM MgCl2 and 5 mM CaCl2 (TBS/Mg/Ca); parent: 1; read off a plot.
Take chain 1 E49A: the ratio to parent was 0.09.

chain 1 Y225A: the ratio to parent stood at 0.06.

As for chain 1 H218A, the ratio to parent stood at 0.04.

As for chain 1 D102A, the ratio to parent stood at 0.04.

Variants of B2 are the subject of a further assay. The description is as above. The settings on record: with mouse collectin kidney 1 (CL-K1) [mouse (endogenous in serum of C57BL/6J mice)]; TBS containing 7 mM MgCl2 and 5 mM CaCl2 (TBS/Mg/Ca); parent: 1; read off a plot.
As for chain 1 E49A, the ratio to parent amounted to 0.02.

Turning to chain 1 Y225A, the ratio to parent came to 0.07.

Turning to chain 1 D102A, the ratio to parent worked out at 0.03.

Take chain 1 H218A: the ratio to parent was determined as 0.04.
